{
  "source": "paper PMC12274486",
  "about": "“A glyoxal-specific aldehyde signaling axis in Pseudomonas aeruginosa that influences quorum sensing and infection” (Nature Communications, 2025)",
  "molecules": {"B1": {"name": "Aldehyde responsive quorum-sensing Inhibitor (ArqI), wild type, purified (natural protein)", "chain": "SGGGMTYHVLVQFDVPSDKREAFAAAGLFDANGSLQNEPGTLRFEVIRDENNRNRFYLDEVYEDEAAFLQHCRNETIARFYELIDSYAFGPLFLFKGYRVEG", "notes": "also called PA0709; WT ArqI"}, "B2": {"name": "ArqI R49Q variant, purified (natural protein)", "chain": "SGGGMTYHVLVQFDVPSDKREAFAAAGLFDANGSLQNEPGTLRFEVIRDENNQNRFYLDEVYEDEAAFLQHCRNETIARFYELIDSYAFGPLFLFKGYRVEG", "notes": "source: E. coli, purified as the wild type"}, "B3": {"name": "ArqI P87G variant, purified (natural protein)", "chain": "SGGGMTYHVLVQFDVPSDKREAFAAAGLFDANGSLQNEPGTLRFEVIRDENNRNRFYLDEVYEDEAAFLQHCRNETIARFYELIDSYAFGGLFLFKGYRVEG", "notes": "as for B2"}, "B4": {"name": "ArqI R16A variant, purified (natural protein)", "chain": "SGGGMTYHVLVQFDVPSDKAEAFAAAGLFDANGSLQNEPGTLRFEVIRDENNRNRFYLDEVYEDEAAFLQHCRNETIARFYELIDSYAFGPLFLFKGYRVEG", "modifications": "in the crystal: βME-modified Cys68", "notes": "source: E. coli, purified as the wild type (Ni-NTA, ULP1 cleavage, SEC)"}},
  "key": {"PqsA (PqsAFL)": {"biological_target": "T1, PqsA (PqsAFL) (Pseudomonas aeruginosa, UniProt Q9I4X3)", "T1 construct": "full length, expressed in E. coli T7 Express with 6x-His-CPD tag, tag cut", "test": "anthraniloyl-CoA formation, absorbance at […] nm", "assay_type": "biochemical", "conditions": "assay with added ArqI"}, "[1]": {"biological_target": "T2, ArqI (PA0709), Aldehyde responsive quorum-sensing Inhibitor (Pseudomonas aeruginosa, UniProt Q9I5L9)", "T2 construct": "full length (98 residues), expressed in E. coli as His6-SUMO fusion, SUMO tag cut, N-terminal SGGG left; hexamer; numbering from Met1", "test": "X-ray crystallography and mass spectrometry of Arg49 adduct", "assay_type": "binding", "conditions": "covalent; Arg49 in chains C, D, E; hemiaminal or carboxymethylarginine adduct (+58 amu)"}, "[2]": {"biological_target": "the molecule itself", "test": "crystal structure; native ArqI, crystals from 50 mM sodium acetate pH 5.0, 12% PEG 4000; C 222_1 cell, 6 subunits in the asymmetric unit, 2.0 Å"}, "[3]": {"biological_target": "T3, PqsA full-length protein, purified (Pseudomonas aeruginosa MPAO1, UniProt Q9I4X3 1-517)", "T3 construct": "also called PqsAFL; FL", "T3 sequence": "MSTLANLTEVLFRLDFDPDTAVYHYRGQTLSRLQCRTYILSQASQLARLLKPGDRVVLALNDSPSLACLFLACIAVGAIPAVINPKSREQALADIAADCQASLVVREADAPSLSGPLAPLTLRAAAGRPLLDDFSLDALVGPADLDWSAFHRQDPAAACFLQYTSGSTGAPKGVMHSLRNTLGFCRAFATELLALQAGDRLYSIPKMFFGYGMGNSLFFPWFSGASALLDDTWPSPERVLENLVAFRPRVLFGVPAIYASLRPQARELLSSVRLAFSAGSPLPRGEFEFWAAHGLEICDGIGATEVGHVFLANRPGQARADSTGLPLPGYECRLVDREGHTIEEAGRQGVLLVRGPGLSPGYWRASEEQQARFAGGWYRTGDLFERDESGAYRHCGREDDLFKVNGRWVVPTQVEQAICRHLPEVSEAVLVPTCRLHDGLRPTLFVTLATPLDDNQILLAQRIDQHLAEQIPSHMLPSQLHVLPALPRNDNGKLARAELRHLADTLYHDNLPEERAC", "test": "other fluorescence titration", "conditions": "both partners purified"}, "[4]": {"biological_target": "the molecule itself", "test": "SEC; HiLoad Superdex 75 16/600 pg or Superose 6 Increase 10/300 GL; 2 mL at 10 mg/mL; 50 mM Tris-Cl pH 8.0, 150 mM NaCl, 1 mM βME (a buffer with 500 mM NaCl, pH 7.4, is also named); RT"}, "crystal structure": {"biological_target": "the molecule itself", "test": "crystal structure"}},
  "note": "Values joined by “and” are separate entries in the source; they are usually repeats but may differ in a detail not shown here. Identical values can stand only once.",
  "data": [
    {"molecule": "CC(C)(COP(=O)(O)OP(=O)(O)OC[C@H]1O[C@@H](n2cnc3c(N)ncnc32)[C@H](O)[C@@H]1OP(=O)(O)O)[C@@H](O)C(=O)NCCC(=O)NCCS", "note": "[CoA, coenzyme A]", "values": [
      {"measurement": "anthraniloyl-CoA formation, absorbance at 375 nm", "setting": "PqsA (PqsAFL); with anthranilate and ATP", "result": "purified PqsA protein with CoA, ATP, and anthranilate"}
    ]},
    {"molecule": "O=CC=O", "note": "[GO, glyoxal]", "values": [
      {"measurement": "X-ray crystallography and mass spectrometry of Arg49 adduct", "setting": "[1]", "result": "A glyoxal modification was observed on Arg49 for three subunits (chains C, D and E)"}
    ]},
    {"molecule": "Nc1ccccc1C(=O)O", "note": "[anthranilate]", "values": [
      {"measurement": "anthraniloyl-CoA formation, absorbance at 375 nm", "setting": "PqsA (PqsAFL); with CoA and ATP", "result": "purified PqsA protein with CoA, ATP, and anthranilate"}
    ]},
    {"molecule": "B1", "values": [
      {"measurement": "stoichiometry N", "setting": "[2]", "result": 6},
      {"measurement": "Kd", "setting": "[3]", "result": 43, "unit": "µM"}
    ]},
    {"molecule": "B2", "values": [
      {"measurement": "stoichiometry N", "setting": "[4]", "result": "6 and 2"}
    ]},
    {"molecule": "B3", "values": [
      {"measurement": "stoichiometry N", "setting": "[4]", "result": 2}
    ]},
    {"molecule": "B4", "values": [
      {"measurement": "stoichiometry N", "setting": "crystal structure", "result": 6},
      {"measurement": "stoichiometry N", "setting": "[4]", "result": 2}
    ]}
  ]
}
